According to the RNAGym collection of RNA variant scans (doi:10.1073/pnas.2313332121):
Fewer inactive variants are shown than the library holds.

B1: TPR 5TU (parent)
chain: GGAUCUUCUCGAUCUAACAAAAAAGACAAAUCUGCCACAAAGCUUGAGAGCAUCUUCGGAUGCAGAGGCGGCAGCCUUCGGUGGCGCGAUAGCGCCAACGUUCUCAACUAUGACACGCAAAACGCGUGCUCCGUUGAAUGGAGUUUAUCAUG

Variants of: B1
Assay: polymerase ribozyme fitness, log enrichment relative to wild type (log ratio); higher = more active; in vitro selection for triplet polymerase activity
Outline: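 Each subunit of a heterodimeric triplet polymerase ribozyme was represented by a PCR-built, transcribed mutant library that underwent triplicate single-round in vitro selection with frozen incubation at −7 °C. Extended constructs were recovered by gel excision, streptavidin-bead capture and RT-PCR, and Illumina sequencing of input and output libraries kept genotypes with ≥10 input reads and ≥1 read per output. Fitness is the logarithm of genotype enrichment relative to wild-type enrichment, from inverse-variance-weighted replicate averages, with a logarithm base of 2.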

Row | Variant | polymerase ribozyme fitness (log ratio)
1 | A19U C69G C96G U104G | -1.98
2 | A12G A37G C87U U109G U144C U145C C149G | ≤ -4.2
3 | U15A A73C G94A | -3.39
4 | A22C A24G A52G G68U | ≤ -4.2
5 | U31A A39G A40U A41C G48A C95U C131G U148A | ≤ -4.2
6 | G81U C93U G94U A98G C131A A137U | ≤ -4.2
7 | C27U A91G A147C G152U | ≤ -4.2
8 | U4C U144G | 0.832
9 | U55A G59A | 1.69
10 | A21G A49U G50A | -0.423
11 | A49C A106G | -4.12
12 | C38G A40U U55A U56A C87U A89C | -3.99
13 | U56A U61C | -3.45
14 | A30C A64U G65A G70A G84U A91C C103U G136C C149G | ≤ -4.2
15 | A3U C54U | -1.57
16 | C93U A113U A119C G140U | -3.82
17 | U45G G88A | -4.02
18 | U55A C75G U77G A107U | ≤ -4.2
19 | A12G C57U C87U C103G | -2.19
20 | C79U C103G | ≤ -4.2
21 | C54U G59C A97U | -0.658

Row | Variant | polymerase ribozyme fitness (log ratio)
22 | U4C A12C A24U C27G A28G U44A G88A C116U G143A | ≤ -4.2
23 | G50A U82C | -0.783
24 | U55A C87U | -1.1
25 | A29G C105G U146G | ≤ -4.2
26 | C10A U13C A30C G83A G88A A98U C125A A147G | ≤ -4.2
27 | A16U C27G A30U C35G G83A C103U | ≤ -4.2
28 | A52G C96U | -1.46
29 | A30U A66G G68A C76U G141U A142U | ≤ -4.2
30 | C36A C105U U127G | ≤ -4.2
31 | A29U G86A C87U C105A C116A U146A | ≤ -4.2
32 | C51G C87A C93G C105A A113U | ≤ -4.2
33 | C72U G128U | -3.1
34 | C87U C108U | -3.61
35 | G48C G92U | -1.69
36 | A17G G143U | -2.24
37 | C32G A49U G74U U77G A89U | ≤ -4.2
38 | C14U C96A | -1.59
39 | A41U G83U U90G C93G A106U | ≤ -4.2
40 | A21C A24U C32A G80A C93U C95A | ≤ -4.2
41 | C32G G42C U44A G88C C95U C103G | ≤ -4.2
42 | A17U G50A | -2.57

Row | Variant | polymerase ribozyme fitness (log ratio)
43 | A20U U45A C87G | -4.13
44 | A22U U56A G84A G136C | -3.75
45 | C10A A12U A41G C96A A107C C114A | ≤ -4.2
46 | C87G A98G | ≤ -4.2
47 | G59A G83U | -1.06
48 | G59C G86A | -2.61
49 | A20U C57U | -2.23
50 | A12G A23C A47C A60G C93U | ≤ -4.2
51 | G50C G81C C93G C95U A110C | ≤ -4.2
52 | G50U G94A U102C C103U | -3.63
53 | C54U G84C G100C C108A A113U G141U | ≤ -4.2
54 | U31A A91C C116A | -3.88
55 | A91G G92U | -2.31
56 | A91C A115C | ≤ -4.2
57 | C75G C76G G81U C95G | ≤ -4.2
58 | U53A C118G U144C | -1.81
59 | A21U C38G C54U G92A G117U A121G | ≤ -4.2
60 | G86U A98U U111G C114U | -3.81
61 | A3G G11A C32U C85G C87A G124U | ≤ -4.2
62 | A40U A52G G58C C75U G141U | -2.07
63 | G11A A23U U53A G92U C108U A142U | ≤ -4.2

Row | Variant | polymerase ribozyme fitness (log ratio)
64 | C32U C93A | -4.11
65 | U33A A41C U53C C57U G65A A66C G67C G80C | ≤ -4.2
66 | A23U G25U A29U C43U G58U G86A A107G | ≤ -4.2
67 | G50A C76U C93U A98C | -3.32
68 | C93A U104G | -2.89
69 | C54G U56A C96G U102C G136A U144G | -3.08
70 | A24U A29C A73G G86U A89C G140U A150G | ≤ -4.2
71 | U13A A39U C54G C79U G81U G94U U139C G140U | ≤ -4.2
72 | C69A A119U | -2.7
73 | C38U A66G U82A C96U C125A U145A | ≤ -4.2
74 | U9A A22C A37U U45A U53A G84A A147U | ≤ -4.2
75 | A40C C93A C99U G133C | -3.98
76 | C10U C32U A49C U134C | ≤ -4.2
77 | A20C C57G C105G C149A | ≤ -4.2
78 | G34A G50C G92U | ≤ -4.2
79 | G42C G94C U111C | ≤ -4.2
80 | C35A G65U G83C C85A G124A | ≤ -4.2
81 | G92C U101G G117C | -1.52
82 | A37G C93U G117A G128A | -4.18
83 | G48A U55A C57G A66U G83C U90A C108U G124U | ≤ -4.2
